According to patent publication US20160264649A1:

Key:
Assay in all cases: cell-based or functional assay
[1] = molecular target: HIV-1 Env of pseudovirus isolate MGRM-G-013 (subtype G) (HIV-1)
[2] = molecular target: HIV-1 Env of pseudovirus isolate MGRM-G-006 (subtype G) (HIV-1)
[3] = molecular target: HIV-1 Env of isolate MGRM-D-020 (subtype D) (HIV-1)
[4] = molecular target: HIV-1 Env of isolate 92UG046 (subtype D) (HIV-1)
[5] = molecular target: HIV-1 Env of isolate MGRM-D-003 (subtype D) (HIV-1)
[6] = molecular target: HIV-1 Env of isolate MGRM-F1-018 (subtype F) (HIV-1)
[7] = molecular target: HIV-1 Env of isolate MGRM-D-021 (subtype D) (HIV-1)
[8] = molecular target: HIV-1 Env of isolate MGRM-D-008 (subtype D) (HIV-1)
[9] = molecular target: HIV-1 Env of isolate MGRM-F1-010 (subtype F) (HIV-1)
[10] = molecular target: HIV-1 Env of isolate MGRM-F1-014 (subtype F) (HIV-1)
[11] = molecular target: HIV-1 Env of isolate MGRM-F1-015 (subtype F) (HIV-1)
[12] = molecular target: HIV-1 Env of pseudovirus isolate MGRM-G-015 (subtype G) (HIV-1)
[13] = molecular target: HIV-1 Env of isolate MGRM-D-022 (subtype D) (HIV-1)
[14] = molecular target: HIV-1 Env of pseudovirus isolate MGRM-G-011 (subtype G) (HIV-1)
[15] = molecular target: HIV-1 Env of isolate 92UG024 (subtype D) (HIV-1)
[16] = molecular target: HIV-1 Env of isolate MGRM-F1-021 (subtype F) (HIV-1)
[17] = molecular target: HIV-1 Env of isolate MGRM-F1-020 (subtype F) (HIV-1)
[18] = molecular target: HIV-1 Env of pseudovirus isolate MGRM-G-014 (subtype G) (HIV-1)
[19] = molecular target: HIV-1 Env of pseudovirus isolate MGRM-G-016 (subtype G) (HIV-1)
[20] = molecular target: HIV-1 Env of pseudovirus isolate MGRM-G-025 (subtype G) (HIV-1)
[21] = molecular target: HIV-1 Env of pseudovirus isolate MGRM-G-017 (subtype G) (HIV-1)
[22] = molecular target: HIV-1 Env of isolate MGRM-D-001 (subtype D) (HIV-1)
[23] = molecular target: HIV-1 Env of isolate 92UG001 (subtype D) (HIV-1)
[24] = molecular target: HIV-1 Env of isolate MGRM-D-002 (subtype D) (HIV-1)
[25] = molecular target: HIV-1 Env of pseudovirus isolate MGRM-G-001 (subtype G) (HIV-1)
[26] = molecular target: HIV-1 Env of isolate 98CN006 (subtype CRF08_BC) (HIV-1)
[27] = molecular target: HIV-1 Env of pseudovirus isolate MGRM-G-019 (subtype G) (HIV-1)
[28] = molecular target: HIV-1 Env of isolate MGRM-D-011 (subtype D) (HIV-1)
[29] = molecular target: HIV-1 Env of pseudovirus isolate MGRM-G-009 (subtype G) (HIV-1)
[30] = molecular target: HIV-1 Env of pseudovirus isolate MGRM-G-028 (subtype G) (HIV-1)
[31] = molecular target: HIV-1 Env of pseudovirus isolate MGRM-G-024 (subtype G) (HIV-1)
[32] = molecular target: HIV-1 Env of isolate MGRM-F1-012 (subtype F) (HIV-1)
[33] = molecular target: HIV-1 Env of isolate MGRM-D-024 (subtype D) (HIV-1)
[34] = molecular target: HIV-1 Env of isolate MGRM-D-012 (subtype D) (HIV-1)
[35] = molecular target: HIV-1 Env of isolate MGRM-D-029 (subtype D) (HIV-1)
[36] = molecular target: HIV-1 Env of isolate MGRM-F1-006 (subtype F) (HIV-1)
[37] = molecular target: HIV-1 Env of isolate MGRM-F1-016 (subtype F) (HIV-1)
[38] = molecular target: HIV-1 Env of isolate MGRM-D-005 (subtype D) (HIV-1)
[39] = molecular target: HIV-1 Env of isolate MGRM-D-018 (subtype D) (HIV-1)
[40] = molecular target: HIV-1 Env of isolate 98CN009 (subtype CRF07_BC) (HIV-1)
[41] = molecular target: HIV-1 Env of isolate MGRM-D-013 (subtype D) (HIV-1)
[42] = molecular target: HIV-1 Env of isolate MGRM-D-014 (subtype D) (HIV-1)
[43] = molecular target: HIV-1 Env of isolate MGRM-F1-004 (subtype F) (HIV-1)
[44] = molecular target: HIV-1 Env of pseudovirus isolate MGRM-G-004 (subtype G) (HIV-1)
[45] = molecular target: HIV-1 Env of isolate MGRM-F1-017 (subtype F) (HIV-1)
[46] = molecular target: HIV-1 Env of isolate MGRM-D-004 (subtype D) (HIV-1)
[47] = molecular target: HIV-1 Env of isolate MGRM-D-026 (subtype D) (HIV-1)
[48] = molecular target: HIV-1 Env of isolate MGRM-F1-022 (subtype F) (HIV-1)
[49] = molecular target: envelope of aMLV pseudovirus (negative control)
[50] = molecular target: HIV-1 Env of isolate MGRM-D-028 (subtype D) (HIV-1)
[51] = molecular target: HIV-1 Env of isolate MGRM-F1-023 (subtype F) (HIV-1)
[52] = molecular target: HIV-1 Env of pseudovirus isolate MGRM-G-027 (subtype G) (HIV-1)
[53] = molecular target: HIV-1 Env of isolate 92UG005 (subtype D) (HIV-1)
[54] = molecular target: HIV-1 Env of isolate 92UG114 (subtype D) (HIV-1)
[55] = molecular target: HIV-1 Env of isolate MGRM-F1-008 (subtype F) (HIV-1)
[56] = molecular target: HIV-1 Env of isolate MGRM-D-016 (subtype D) (HIV-1)
[57] = molecular target: HIV-1 Env of isolate MGRM-D-019 (subtype D) (HIV-1)
[58] = molecular target: HIV-1 Env of isolate MGRM-F1-013 (subtype F) (HIV-1)

Chain of PGT-145 (antibody) (VH): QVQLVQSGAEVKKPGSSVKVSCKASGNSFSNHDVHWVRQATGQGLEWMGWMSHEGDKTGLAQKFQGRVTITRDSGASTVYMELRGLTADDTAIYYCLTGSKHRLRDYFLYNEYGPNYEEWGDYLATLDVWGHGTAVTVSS
Chain of PGT-145 (antibody) (VL): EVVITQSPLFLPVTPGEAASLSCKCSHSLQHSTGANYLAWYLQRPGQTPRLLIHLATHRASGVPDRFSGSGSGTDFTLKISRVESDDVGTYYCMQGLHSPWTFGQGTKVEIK
Chain of PGT-143 (antibody) (VH): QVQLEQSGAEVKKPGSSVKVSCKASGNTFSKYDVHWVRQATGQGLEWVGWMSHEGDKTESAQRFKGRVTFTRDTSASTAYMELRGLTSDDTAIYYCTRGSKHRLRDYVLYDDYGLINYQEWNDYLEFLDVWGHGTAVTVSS
Chain of PGT-143 (antibody) (VL): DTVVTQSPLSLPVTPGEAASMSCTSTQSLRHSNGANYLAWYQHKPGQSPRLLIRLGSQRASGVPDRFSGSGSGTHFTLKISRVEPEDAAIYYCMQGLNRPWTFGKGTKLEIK

Substance: PGT-121 (antibody)
- IC50 [1]: 3.99 µg/mL
- IC50 [2]: > 50 µg/mL
- IC50 (neutralization) [3]: 0.01 µg/mL
- IC50 (neutralization) [4]: > 50 µg/mL
- IC50 (neutralization) [5]: 10.7 µg/mL
- IC50 (neutralization) [6]: 0.04 µg/mL
- IC50 (neutralization) [7]: 5.33 µg/mL
- IC50 (neutralization) [8]: > 50 µg/mL
- IC50 (neutralization) [9]: 0.016 µg/mL
- IC50 (neutralization) [10]: 0.082 µg/mL
- IC50 (neutralization) [11]: 28.4 µg/mL
- IC50 [12]: > 50 µg/mL
- IC50 (neutralization) [13]: > 50 µg/mL
- IC50 [14]: 3.17 µg/mL
- IC50 (neutralization) [15]: > 50 µg/mL
- IC50 (neutralization) [16]: 0.099 µg/mL
- IC50 (neutralization) [17]: 0.167 µg/mL
- IC50 [18]: 0.009 µg/mL
- IC50 [19]: > 50 µg/mL
- IC50 [20]: 0.063 µg/mL
- IC50 [21]: 0.004 µg/mL
- IC50 (neutralization) [22]: 0.615 µg/mL
- IC50 (neutralization) [23]: > 50 µg/mL
- IC50 (neutralization) [24]: 0.006 µg/mL
- IC50 [25]: 0.004 µg/mL
- IC50 (neutralization) [26]: 0.01 µg/mL
- IC50 [27]: 0.011 µg/mL
- IC50 (neutralization) [28]: 0.018 µg/mL
- IC50 [29]: 0.02 µg/mL
- IC50 [30]: 0.014 µg/mL
- IC50 [31]: 0.014 µg/mL
- IC50 (neutralization) [32]: 1.91 µg/mL
- IC50 (neutralization) [33]: 0.038 µg/mL
- IC50 (neutralization) [34]: > 50 µg/mL
- IC50 (neutralization) [35]: > 50 µg/mL
- IC50 (neutralization) [36]: 5.33 µg/mL
- IC50 (neutralization) [37]: 0.931 µg/mL
- IC50 (neutralization) [38]: > 50 µg/mL
- IC50 (neutralization) [39]: 0.005 µg/mL
- IC50 (neutralization) [40]: 0.009 µg/mL
- IC50 (neutralization) [41]: > 50 µg/mL
- IC50 (neutralization) [42]: 0.009 µg/mL
- IC50 (neutralization) [43]: 1.67 µg/mL
- IC50 [44]: 0.115 µg/mL
- IC50 (neutralization) [45]: 16.9 µg/mL
- IC50 (neutralization) [46]: > 50 µg/mL
- IC50 (neutralization) [47]: > 50 µg/mL
- IC50 (neutralization) [48]: 0.104 µg/mL
- IC50 [49]: > 50 µg/mL
- IC50 (neutralization) [50]: 0.009 µg/mL
- IC50 (neutralization) [51]: 0.097 µg/mL
- IC50 [52]: 0.124 µg/mL
- IC50 (neutralization) [53]: 18.3 µg/mL
- IC50 (neutralization) [54]: 0.004 µg/mL
- IC50 (neutralization) [55]: > 50 µg/mL
- IC50 (neutralization) [56]: > 50 µg/mL
- IC50 (neutralization) [57]: > 50 µg/mL
- IC50 (neutralization) [58]: 0.083 µg/mL

Substance: PGT-145 (antibody)
- IC50 [1]: > 50 µg/mL
- IC50 [2]: 0.286 µg/mL
- IC50 (neutralization) [4]: > 50 µg/mL
- IC50 [12]: 10.5 µg/mL
- IC50 [14]: 0.028 µg/mL
- IC50 (neutralization) [15]: 1.6 µg/mL
- IC50 [18]: 0.144 µg/mL
- IC50 [19]: 0.081 µg/mL
- IC50 [20]: > 50 µg/mL
- IC50 [21]: 0.205 µg/mL
- IC50 (neutralization) [23]: > 50 µg/mL
- IC50 [25]: 0.028 µg/mL
- IC50 (neutralization) [26]: > 50 µg/mL
- IC50 [27]: 0.041 µg/mL
- IC50 [29]: 0.982 µg/mL
- IC50 [30]: 0.046 µg/mL
- IC50 [31]: 0.06 µg/mL
- IC50 (neutralization) [40]: 0.136 µg/mL
- IC50 [44]: > 50 µg/mL
- IC50 [49]: > 50 µg/mL
- IC50 [52]: 0.433 µg/mL
- IC50 (neutralization) [53]: > 50 µg/mL

Substance: PGT-143 (antibody)
- IC50 [1]: > 50 µg/mL
- IC50 [2]: 0.031 µg/mL
- IC50 (neutralization) [4]: > 50 µg/mL
- IC50 [12]: > 50 µg/mL
- IC50 [14]: 0.074 µg/mL
- IC50 (neutralization) [15]: > 50 µg/mL
- IC50 [18]: 0.107 µg/mL
- IC50 [19]: 7.6 µg/mL
- IC50 [20]: > 50 µg/mL
- IC50 [21]: 0.107 µg/mL
- IC50 (neutralization) [23]: > 50 µg/mL
- IC50 [25]: 0.423 µg/mL
- IC50 (neutralization) [26]: > 50 µg/mL
- IC50 [27]: 4.77 µg/mL
- IC50 [29]: 2.97 µg/mL
- IC50 [30]: 43 µg/mL
- IC50 [31]: 0.048 µg/mL
- IC50 (neutralization) [40]: 10.2 µg/mL
- IC50 [44]: > 50 µg/mL
- IC50 [49]: > 50 µg/mL
- IC50 [52]: > 50 µg/mL
- IC50 (neutralization) [53]: > 50 µg/mL
